Source: patent US8728472 (University of Texas, dated 2014)

How the values were obtained:
[1] = target: T1, Cdk5 expressed in HEK293T cells from a transfected eukaryotic expression plasmid (UniProt Q00535 1-292); assay: immunohistochemical staining of transfected HEK293T cells (FIG. 2C)
T1 construct: also called cyclin-dependent kinase 5

p35 = target: T2, p35 (Mus musculus (Mouse), UniProt P61809 1-307); assay: immunoblot of striatal lysates from p25 over-expressing mice (FIG. 2B)
T2 construct: also called Cdk5 cofactor p35
T2 sequence (P61809 whole entry): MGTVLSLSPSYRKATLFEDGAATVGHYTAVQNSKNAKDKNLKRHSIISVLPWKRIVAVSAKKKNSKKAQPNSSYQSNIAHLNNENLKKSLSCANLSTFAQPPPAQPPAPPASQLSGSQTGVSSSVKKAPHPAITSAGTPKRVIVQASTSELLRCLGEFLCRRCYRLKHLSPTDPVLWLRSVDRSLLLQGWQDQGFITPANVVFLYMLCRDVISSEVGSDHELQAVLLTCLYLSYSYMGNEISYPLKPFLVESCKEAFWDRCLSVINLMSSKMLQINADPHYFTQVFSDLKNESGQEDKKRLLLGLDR

[2] = target: T3, p25 generated in rat brain or rat striatal neurons by ischemia (MCAO or OGD) (rat, UniProt P61809 99-307 (mouse entry)); assay: detection of p25 in stroked rat brain; immunostains of striatum and cortex (FIG. 7D)
T3 construct: Endogenous protein in tissue sections, lysates and primary cultures; also called p25 generated by MCAO; p25 generated in response to focal ischemia
T3 sequence (P61809 99-307 limits assumed): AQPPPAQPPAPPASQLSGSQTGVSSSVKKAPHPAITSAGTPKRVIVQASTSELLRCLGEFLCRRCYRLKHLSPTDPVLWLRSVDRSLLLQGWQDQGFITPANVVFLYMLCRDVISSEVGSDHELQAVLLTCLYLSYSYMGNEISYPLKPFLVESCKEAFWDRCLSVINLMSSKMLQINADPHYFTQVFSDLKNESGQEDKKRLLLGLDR

binding result [1]: no binding | binding result (p35): no binding | binding result [2]: binds
B1: anti-p25 monoclonal antibody 1C4 (antibody, V domains shown)
VH: QIQLEESGPELRKPGETVRISCKASGYTFTTAGMQWVQKMPGTGLKWIGWINTHSGVPKYAGEFTGRFDFSLETSASTAYLQIVNLKNEDTATYFCARYGKFGEMDYWGQGTSVTVSS
VL: IVMTQSPASLAVSLGQRATISCRSSETVDSDGNSFMHWYQQKPGQSPKLLLYLASTLESGVPARFSGSGSRTDFTLTIDPVEADDAATYYCHQNNEDPTFGGGTKLEIKR
notes: Mouse monoclonal antibody from hybridoma 1C4; also called p25 mAb; anti-p25 antibody
